Measurements from patent US20090226442A1 (Biogen, published 2009).
Positions count from the first letter of the chain named.

B1: 1P4A12 murine monoclonal anti-RON antibody (antibody, V domains shown)
VH: EVQLQQSGPELVKPGASMKISCKASGYSFTGYTMNWVKQSHGKKLEWIGLINPYNGGTIYNQKFKGKATLTVDKSSSTAYMELLSLTSEDSAVYYCARWLRRGGYAMDYWGQGASVTVSS
VL: DILLTQSPAILSVSPGERVSFSCRASQSIGTSIHWYQQRTNGSPRLLIKFASESISGIPSRFSGSGSGTDFTLSINSVESEDIADYYCQQSDSWPLTFGAGTKLEVK
notes: Whole murine hybridoma antibody; kappa light chain; also called 1P4A12.2; 1.P4A12.2
B2: 1P5B10 murine monoclonal anti-RON antibody (antibody, V domains shown)
VH: B1 VH with K23R, S25A, Y27F, K44S, P53L, Y54N, I59S, Y60H, A114I
VL: B1 VL with S28N, F50Y, V106L
notes: Whole murine hybridoma antibody; kappa light chain; also called 1P5B10.3; 1.P5B10.3.10
B3: 1P3B2 murine monoclonal anti-RON antibody (antibody, V domains shown)
VH: EVQLQQSGPELEKPGASVKISCKASGYSFTGYNMNWVKQSNGESLEWIGDIDPYYGGTRYNQKFKGKATLTVDKSSSTAYMQLKSLTSEDSAVYYCAREGRGFAYWGQGTLVTVSA
VL: DIQMTQSPASLSASVGETVTITCRASENIYSYLAWYQKKQGKSPQLLVYNAKTSVEGVPSRFSGSGSGIQFSLKINSLQPEDFGSYYCHCQHHYGTLPTFGGGTKLEIK
notes: Whole murine hybridoma antibody; kappa light chain; also called 1P3B2.2; PTA-8813
B4: 1P4A3 murine monoclonal anti-RON antibody (antibody, V domains shown)
VH: B3 VH with K19M, N41T, E43K, G56D, V72A, A97T
VL: DIQMTQSPASLSASVGETVTITCRASENIYSYLAWYQQKQGKSPQLLVYNAKTLAGGVPSRFSGSGSGTQFSLKINSLQPEDFGSYYCQHYYGTPLTFGAGTKLELK
notes: Whole murine hybridoma antibody; kappa light chain; also called 1P4A3.3; 1.P4A3.3
B5: 1P2E7 murine monoclonal anti-RON antibody (antibody, V domains shown)
VH: DVQLQESGPGLVKPSQSLSLTCTVTGDSITSDYAWNWIRQFPGNKLEWMGYISYSGSTSYNPSLKSRFSITRDTSKNQFFLQLNSVTTEDSATYYCARGGFYYRYAGPGFAYWGQGTLVTVSA
VL: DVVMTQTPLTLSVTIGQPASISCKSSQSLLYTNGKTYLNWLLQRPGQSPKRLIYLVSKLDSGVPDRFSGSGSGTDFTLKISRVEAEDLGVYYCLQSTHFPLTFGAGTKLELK
notes: Whole murine hybridoma antibody; kappa light chain; also called 1P2E7.3; 1.P2E7.3

Molecular target: T1, PSI domain of RON (G502-P544) thioredoxin fusion protein (human, UniProt Q04912 526-568)
T1 construct: Expressed in E. coli; also called PSI domain alone; not shown: thioredoxin (printed 'thiroedexin') fusion partner; purified on
T1 chain: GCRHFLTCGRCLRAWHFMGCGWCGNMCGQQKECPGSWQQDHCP
Test: ELISA on plate-coated PSI domain thioredoxin fusion
Experimental: The ability of the antibodies to bind to soluble RON was measured using a standard ELISA protocol. Briefly, soluble RON protein (R&D Systems, catalog 1947) was coated on Nunc Maxisorb ELISA plates at a concentration of […] in PBS overnight at 4° C. Plates were washed 4 times with an automatic washer in PBS, 0.05% Tween 20. Plates were then blocked in PBS+1% BSA for 1-2 hours at room temperature (RT). After washing, serial dilutions of the antibodies in blocking buffer were added to the plate (100 ul/well) and incubated for 1-2 hours at RT. The plate was washed again 4× with automatic washer (PBS, 0.05% tween 20). Next, the plate was incubated with HRP-labelled donkey anti-mouse polyclonal antibody (Jackson Labs 715-035-130) at a dilution of 1:4000 in blocking buffer (100 ul/well) for 0.5-1 hour RT. The plate was washed again 4× with automatic washer (PBS, 0.05% Tween 20). After the final wash step, the plate was developed with TMB solution (25 ml 100 mM sodium acetate, pH to 6 with citric acid, 4 ul 30% H202, 250 ul 42 mM TMB in DMSO) for 5 minutes. The reaction was stopped with 100 ul H₂SO₄. Plates were read at 450 nm wavelength on Molecular Devices Spectramax M5 and Softmax pro V5 software was used to analyze the data.
The PSI domain of RON (G502-P544) was expressed in E. coli as a thiroedexin-fusion protein. The protein was purified on NiNTA agarose (qiagen) followed by preparative size exclusion chromatography (SEC). This protein was used to coat ELISA plates and analyze antibodies for binding using the same protocol described above for binding of antibodies to soluble RON in Example 10.

Binder | binding result
B1 | no binding
B2 | no binding
B3 | no binding
B4 | no binding
B5 | no binding

These binders were tested against T2, human RON (recepteur d'origine nantais, MST1R), full length, expressed on cells (human, UniProt Q04912 25-1400) (assay: flow cytometry on SW480 tumor cells, 4P fit (apparent affinity)).
T2 construct: On SW480 tumor cells it is endogenous; also called hRON; SW480-RON cells
Experimental: The binding of RON antibodies to RON expressing tumor cells was analyzed by flow cytometry, and an apparent affinity was calculated. Confluent SW480 cells were detached with 5 mM EDTA, washed 1× with FACS buffer (1% FCS, 0.05% sodium azide, 1×PBS) and resuspended at 0.5-1.0×10⁷/ml. The cells were added to a 96-well V bottom polypropylene plate at 100 μl/well. Antibody dilutions were made up in FACS buffer at 2× final concentration and added to the plate at 100 μl/well. The plate was incubated for 1 hour at 4° C., followed by washing 3× with FACS buffer. The cell pellets were then resuspended in 150 μl of PE labeled goat anti-murine IgG H & L secondary antibody, diluted 1/200, and incubated for 1 hour at 4° C. The cells were then washed 1× with FACS buffer and fixed with 150 μl 3% formaldehyde at room temperature for 10 minutes. The cell pellets were resuspended in 150 μl FACS buffer and analyzed by FACS. The EC50 of binding was calculated from the binding curves using a standard 4P fit equation.

Binder | EC50
B1 | 70 pM
B2 | 340 pM
B3 | 40 pM
B4 | 70 pM
B5 | 90 pM
